Series [1] has as its target SARS-CoV-2 spike protein receptor binding domain (RBD) (SARS-CoV-2, UniProt P0DTC2 319-541). Description: SPR. Conditions: both partners purified.
The target is the same in series [2]. Description: SPR. Conditions: both partners purified. The source holds these as a separate data set.
The series “crystal structure” concerns the molecule itself. As to the kind of experiment: crystal structure.
The target of series [3] is SARS-CoV-2 spike protein receptor binding domain (RBD) (SARS-CoV-2, UniProt P0DTC2 319-541). Description: SPR. (In general: In SPR one partner is held on a chip, and binding of the other changes the refractive index at the surface.)

Like-named read-outs stand apart in the source and are kept apart here.

Broadly, the koff is a measure of how fast the partners let go of each other. Lower therefore signals a long-lived complex. In general, Kd refers to the constant that tells how readily two partners part at equilibrium. The kon is the second-order rate constant of association. The low end stands for slow association, the high end for fast association.

B1: bat ACE2 from Rhinolophus macrotis, expressed in insect cells (bACE2-Rm-insect) (domain or fragment)
chain: STTEDEAKKFLDKFNSKAEDLSYESSLASWDYNTNISDENVQKMDEAGAKWSAFYEEQSKLAKNYPLEEIQNDTVKRQLQILQQSGSPVLSEDKSKRLNSILNAMSTIYSTGKVCKPNNPQECLLLEPGLDNIMGTSKDYNERLWAWEGWRAEVGKQLRPLYEEYVVLKNEMARGYHYEDYGDYWRRDYETEESSGPGYSRDQLMKDVDRIFTEIKPLYEHLHAYVRAKLMDTYPLHISPTGCLPAHLLGDMWGRFWTNLYPLTVPFGQKPNIDVTDAMLNQGWDANRIFKEAEKFFVSVSLPKMTEGFWNKSMLTEPGDGRKVVCHPTAWDLGKGDFRIKMCTKVTMEDFLTAHHEMGHIQYDMAYASQPYLLRNGANEGFHEAVGEVMSLSVATPKHLKTMGLLSPDFREDDETEINFLLKQALNIVGTLPFTYMLEKWRWMVFKGEIPKEEWMKKWWEMKREIVGVVEPVPHDETYCDPASLFHVANDYSFIRYYTRTIFEFQFHEALCRIAQHNGPLHKCDISNSTDAGKKLHQMLSVGKSQAWTKTLEDIVDSRNMDVGPLLRYFKPLYTWLQEQNRKSYVGWNTDWSPYAD
As to B1, the off-rate (koff) in series [1] stood at 0.0692 s⁻¹.

B2: bACE2-Rm residues 19 to 615 fused to the mouse Fc tag (bACE2-Rm-mFc) (Fc fusion)
chain: STTEDEAKKFLDKFNSKAEDLSYESSLASWDYNTNISDENVQKMDEAGAKWSAFYEEQSKLAKNYPLEEIQNDTVKRQLQILQQSGSPVLSEDKSKRLNSILNAMSTIYSTGKVCKPNNPQECLLLEPGLDNIMGTSKDYNERLWAWEGWRAEVGKQLRPLYEEYVVLKNEMARGYHYEDYGDYWRRDYETEESSGPGYSRDQLMKDVDRIFTEIKPLYEHLHAYVRAKLMDTYPLHISPTGCLPAHLLGDMWGRFWTNLYPLTVPFGQKPNIDVTDAMLNQGWDANRIFKEAEKFFVSVSLPKMTEGFWNKSMLTEPGDGRKVVCHPTAWDLGKGDFRIKMCTKVTMEDFLTAHHEMGHIQYDMAYASQPYLLRNGANEGFHEAVGEVMSLSVATPKHLKTMGLLSPDFREDDETEINFLLKQALNIVGTLPFTYMLEKWRWMVFKGEIPKEEWMKKWWEMKREIVGVVEPVPHDETYCDPASLFHVANDYSFIRYYTRTIFEFQFHEALCRIAQHNGPLHKCDISNSTDAGKKLHQMLSVGKSQAWTKTLEDIVDSRNMDVGPLLRYFKPLYTWLQEQNRKSYVGWNTDWSPYAD
notes: also called bACE2-Rm-HEK293T cells; bACE2-Rm-WT
In the case of B2, in series [2], binding was characterised by a dissociation constant (Kd) of 2.78 µM.

B3: bat ACE2 from Rhinolophus macrotis fused to the mouse Fc tag (bACE2-Rm-mFc) (Fc fusion)
chain: STTEDEAKKFLDKFNSKAEDLSYESSLASWDYNTNISDENVQKMDEAGAKWSAFYEEQSKLAKNYPLEEIQNDTVKRQLQILQQSGSPVLSEDKSKRLNSILNAMSTIYSTGKVCKPNNPQECLLLEPGLDNIMGTSKDYNERLWAWEGWRAEVGKQLRPLYEEYVVLKNEMARGYHYEDYGDYWRRDYETEESSGPGYSRDQLMKDVDRIFTEIKPLYEHLHAYVRAKLMDTYPLHISPTGCLPAHLLGDMWGRFWTNLYPLTVPFGQKPNIDVTDAMLNQGWDANRIFKEAEKFFVSVSLPKMTEGFWNKSMLTEPGDGRKVVCHPTAWDLGKGDFRIKMCTKVTMEDFLTAHHEMGHIQYDMAYASQPYLLRNGANEGFHEAVGEVMSLSVATPKHLKTMGLLSPDFREDDETEINFLLKQALNIVGTLPFTYMLEKWRWMVFKGEIPKEEWMKKWWEMKREIVGVVEPVPHDETYCDPASLFHVANDYSFIRYYTRTIFEFQFHEALCRIAQHNGPLHKCDISNSTDAGKKLHQMLSVGKSQAWTKTLEDIVDSRNMDVGPLLRYFKPLYTWLQEQNRKSYVGWNTDWSPYAD
As for B3, the koff in series [1] is 0.137 s⁻¹.

B4: bACE2-Rm (bat ACE2 from Rhinolophus macrotis) expressed in insect cells, residues 19 to 615 (domain or fragment)
chain: STTEDEAKKFLDKFNSKAEDLSYESSLASWDYNTNISDENVQKMDEAGAKWSAFYEEQSKLAKNYPLEEIQNDTVKRQLQILQQSGSPVLSEDKSKRLNSILNAMSTIYSTGKVCKPNNPQECLLLEPGLDNIMGTSKDYNERLWAWEGWRAEVGKQLRPLYEEYVVLKNEMARGYHYEDYGDYWRRDYETEESSGPGYSRDQLMKDVDRIFTEIKPLYEHLHAYVRAKLMDTYPLHISPTGCLPAHLLGDMWGRFWTNLYPLTVPFGQKPNIDVTDAMLNQGWDANRIFKEAEKFFVSVSLPKMTEGFWNKSMLTEPGDGRKVVCHPTAWDLGKGDFRIKMCTKVTMEDFLTAHHEMGHIQYDMAYASQPYLLRNGANEGFHEAVGEVMSLSVATPKHLKTMGLLSPDFREDDETEINFLLKQALNIVGTLPFTYMLEKWRWMVFKGEIPKEEWMKKWWEMKREIVGVVEPVPHDETYCDPASLFHVANDYSFIRYYTRTIFEFQFHEALCRIAQHNGPLHKCDISNSTDAGKKLHQMLSVGKSQAWTKTLEDIVDSRNMDVGPLLRYFKPLYTWLQEQNRKSYVGWNTDWSPYAD
Turning to B4, the Kd in series [2] turned out to be 1.5 µM. In other words, the single-digit micromolar range.

B5: bat ACE2 from Rhinolophus macrotis, expressed in E. coli and refolded (bACE2-Rm-E. coli) (domain or fragment)
chain: STTEDEAKKFLDKFNSKAEDLSYESSLASWDYNTNISDENVQKMDEAGAKWSAFYEEQSKLAKNYPLEEIQNDTVKRQLQILQQSGSPVLSEDKSKRLNSILNAMSTIYSTGKVCKPNNPQECLLLEPGLDNIMGTSKDYNERLWAWEGWRAEVGKQLRPLYEEYVVLKNEMARGYHYEDYGDYWRRDYETEESSGPGYSRDQLMKDVDRIFTEIKPLYEHLHAYVRAKLMDTYPLHISPTGCLPAHLLGDMWGRFWTNLYPLTVPFGQKPNIDVTDAMLNQGWDANRIFKEAEKFFVSVSLPKMTEGFWNKSMLTEPGDGRKVVCHPTAWDLGKGDFRIKMCTKVTMEDFLTAHHEMGHIQYDMAYASQPYLLRNGANEGFHEAVGEVMSLSVATPKHLKTMGLLSPDFREDDETEINFLLKQALNIVGTLPFTYMLEKWRWMVFKGEIPKEEWMKKWWEMKREIVGVVEPVPHDETYCDPASLFHVANDYSFIRYYTRTIFEFQFHEALCRIAQHNGPLHKCDISNSTDAGKKLHQMLSVGKSQAWTKTLEDIVDSRNMDVGPLLRYFKPLYTWLQEQNRKSYVGWNTDWSPYADQSIKVWISLKSALGEKAYEWNDNEMYLFRSSVAYAMREYFLKTKNQTILFGDENVWVSNLKPRISFNFHVTSPGNVSDIIPRPEVEGAIRMSRSRINDAFRLDDNSLEFLGIQPTLGPPYQPPVTI
In the case of B5, in series [1], the koff was determined as 0.132 s⁻¹ and the kon worked out at 102000 M⁻¹ s⁻¹.

B6: bACE2-Rm (bat ACE2 from Rhinolophus macrotis) expressed in E. coli, residues 19 to 741 (domain or fragment)
chain: STTEDEAKKFLDKFNSKAEDLSYESSLASWDYNTNISDENVQKMDEAGAKWSAFYEEQSKLAKNYPLEEIQNDTVKRQLQILQQSGSPVLSEDKSKRLNSILNAMSTIYSTGKVCKPNNPQECLLLEPGLDNIMGTSKDYNERLWAWEGWRAEVGKQLRPLYEEYVVLKNEMARGYHYEDYGDYWRRDYETEESSGPGYSRDQLMKDVDRIFTEIKPLYEHLHAYVRAKLMDTYPLHISPTGCLPAHLLGDMWGRFWTNLYPLTVPFGQKPNIDVTDAMLNQGWDANRIFKEAEKFFVSVSLPKMTEGFWNKSMLTEPGDGRKVVCHPTAWDLGKGDFRIKMCTKVTMEDFLTAHHEMGHIQYDMAYASQPYLLRNGANEGFHEAVGEVMSLSVATPKHLKTMGLLSPDFREDDETEINFLLKQALNIVGTLPFTYMLEKWRWMVFKGEIPKEEWMKKWWEMKREIVGVVEPVPHDETYCDPASLFHVANDYSFIRYYTRTIFEFQFHEALCRIAQHNGPLHKCDISNSTDAGKKLHQMLSVGKSQAWTKTLEDIVDSRNMDVGPLLRYFKPLYTWLQEQNRKSYVGWNTDWSPYADQSIKVWISLKSALGEKAYEWNDNEMYLFRSSVAYAMREYFLKTKNQTILFGDENVWVSNLKPRISFNFHVTSPGNVSDIIPRPEVEGAIRMSRSRINDAFRLDDNSLEFLGIQPTLGPPYQPPVTI
notes: also called bACE2-Rm-E. coli; bat ACE2-E. coli
B6 had a Kd in series [2] of 1.3 µM. For the same molecule, the binding result in the series “crystal structure” is recorded as “binds”.

B7: bACE2 from Rhinolophus affinis (bACE2-Ra) (receptor)
chain: STTEDRAKIFLDNFNHEAEDLSYQSSLASWEYNTNISDENVQKMDEAGAKWSAFYEEQSKLAKNYPLEEIQTVPVKLQLQILQQSGSPVLSEDKSKRLNSILNAMSTIYSTGKVCKPNNPQECFLLEPGLDNIMGTSKDYNERLWAWEGWRAEVGKQLRPLYEEYVVLKNEMARGYHYEDYGDYWRRDYETEESSGSGYSRDQLMKDVDRIFTEIKPLYEHLHAYVRTKLMDTYPFHISPTGCLPAHLLGDMWGRFWTNLYPLTVPFGQKPNIDVTDAMVNQGWDANRIFKEAEKFFVSVGLPNMTEGFWNNSMLTEPGDGRKVVCHPTAWDLGKGDFRIKMCTKVTMEDFLTAHHEMGHIQYDMAYATQPYLLRNGANEGFHEAVGEVMSLSVATPKHLKTMGLLSPDFLEDNETEINFLLKQALNIVGTLPFTYMLEKWRWMVFRGEIPKEEWMKKWWEMKRDLVGVVEPVPHDETYCDPASLFHVANDYSFIRYYTRTIFEFQFHEALCRIAQHDGPLHKCDISNSTDAGKKLHQMLSVGKSQPWTVTLKDIVDSRNMDVGPLLRYFEPLYTWLQEQNRKSHVGWNTDWSPYSD
On to B7, for which the affinity in series [3], expressed as Kd, was 0.44 µM.

Values taken from PMC7817217 (Proceedings of the National Academy of Sciences of the …, 2020).
